Experimental data published in article PMC4130638, “Structure of a Stapled Peptide Antagonist Bound to Nutlin-Resistant Mdm2” (PLoS ONE, 2014).
Each block holds one binder with its values, some of them ahead of it. Positions of bridges follow the written chain, without caps; N, C: chain ends. Non-standard residues stand in square brackets, D forms with d. S8 = C=CCCCCCC[C@](C)(N)C(=O)O; S5 = C=CCCC[C@](C)(N)C(=O)O; FAM = carboxyfluorescein

How the values were obtained:
[1] = biological target: T1, Mdm2-M62A (amino acids 6-125) (UniProt Q00987 6-125, M62A); assay: fluorescence polarisation; competitive fluorescence anisotropy: M06 titrated against a constant 150 nM Mdm2 (6-125) wild type or M62A and 50 nM FAM-12-1 peptide; PBS pH 7.4, 3% DMSO, 0.1% Tween-20; apparent Kd; 3-5 titrations; conditions: both partners purified
T1 construct: Made from the wild-type pGEX-6P-1 construct by QuickChange mutagenesis; also called Nutlin-resistant Mdm2; mutant Mdm2 (6-125); source: E. coli BL21(DE3) pLysS, purified (GSTrap, on-column PreScission cleavage, Resource S cation exchange)

[2] = biological target: T2, Mdm2 (amino acids 6-125), wild type (UniProt Q00987 6-125); assay: as above; conditions: both partners purified
T2 construct: Cloned in pGEX-6P-1; also called Mdm2 (6-125); wild-type Mdm2; source: E. coli BL21(DE3) pLysS, purified (GSTrap, on-column PreScission cleavage, Resource S cation exchange)

[3] = biological target: T2, Mdm2 (amino acids 6-125), wild type; assay: not stated; Kds told in the discussion of the structures without method, construct or citation

binding result [1]: binds | binding result [2]: binds
B1: carboxyfluorescein (FAM) labelled 12-1 peptide (peptide)
peptide: {FAM}-RFMDYWEGL-NH2
notes: 12-1 peptide, tracer of the fluorescence anisotropy assay

Kd [1]: 63.1 ± 17.8 nM | Kd [2]: 107 ± 47.9 nM | Kd [3]: 128 nM
B2: M06 stapled peptide (peptide)
chain: Ac-TSF[S5]EYWYLL[S8]-NH2
modifications: staple 4-11
SMILES: CC(=O)N[C@H](C(=O)N[C@@H](CO)C(=O)N[C@@H](Cc1ccccc1)C(=O)N[C@@]1(C)CCCC=CCCCCCC[C@@](C)(C(N)=O)NC(=O)[C@H](CC(C)C)NC(=O)[C@H](CC(C)C)NC(=O)[C@H](Cc2ccc(O)cc2)NC(=O)[C@H](Cc2c[nH]c3ccccc23)NC(=O)[C@H](Cc2ccc(O)cc2)NC(=O)[C@H](CCC(=O)O)NC1=O)[C@@H](C)O
